The results in this text go back to PMC13507242.

By stoichiometry N is commonly meant the number of molecules, sites or subunits per partner or assembly.

In assay [1] the target is CD33^M ectodomain (CD33^M ECD), residues 21-232, Endo Hf-deglycosylated (human). The assay is described as follows: AUC; sedimentation velocity (0.4 mg/ml, 40,000 rpm) and sedimentation equilibrium (0.2, 0.1, 0.05 mg/ml, 16,000 or 20,000 rpm), 20 °C, 20 mM HEPES, 200 mM NaCl, pH 7.5; dimer to monomers.
The target is the same in assay [2]. The assay is described as follows: SEC-MALS; Superdex 75 10/300 GL, 20 mM HEPES, 200 mM NaCl, pH 7.5; loaded at 100 and 20 µM (<10 and 2 µM on the column); dimer to monomers. For orientation: Size exclusion chromatography separates by hydrodynamic size, large species first.
The target of assay [3] is endogenous CD33^M of human U937 monocytic cells (human (endogenous in U937)).
Sequence of endogenous CD33^M of human U937 monocytic cells (human (endogenous in U937)) (P20138 18-364): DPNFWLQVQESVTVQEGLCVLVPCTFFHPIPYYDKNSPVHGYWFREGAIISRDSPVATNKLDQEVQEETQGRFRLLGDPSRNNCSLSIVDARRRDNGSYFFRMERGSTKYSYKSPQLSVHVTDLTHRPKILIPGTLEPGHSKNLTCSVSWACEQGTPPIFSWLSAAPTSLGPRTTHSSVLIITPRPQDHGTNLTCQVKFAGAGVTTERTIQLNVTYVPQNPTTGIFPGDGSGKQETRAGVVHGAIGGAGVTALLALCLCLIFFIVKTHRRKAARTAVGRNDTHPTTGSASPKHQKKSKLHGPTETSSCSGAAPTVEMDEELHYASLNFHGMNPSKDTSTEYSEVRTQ
Assay [4] has the same target. Kind of assay: co-IP; U937 cells (endogenous CD33) exposed to CLU (60 nM), desCLU, rCLU or CLU + Aβ; CD33 immunoprecipitated from lysates, blot for CLU.
In assay [5] the target is CD33^M ectodomain (CD33^M ECD), residues 21-232, Endo Hf-deglycosylated (human). The assay is described as follows: BLI; Octet RED384, 30 °C, 20 mM HEPES, 200 mM NaCl, 1 mg/mL casein, pH 7.5; Ni-NTA biosensors loaded with His6 deglycosylated CD33^M ECD WT or R119A; CLU 0.0025-5 µM; steady state (895-900 s), Hill equation; avidity. In general terms: In BLI a coated tip is dipped into the sample, and binding shifts an interference pattern.

In assay [6] the target is HA-tagged CD33^M (full-length major isoform) expressed in HEK293 / HEK293T cells (human). The assay is described as follows: co-IP; HEK293 / HEK293T cells expressing HA-tagged CD33 incubated with CLU (30 nM in the methods, 60 nM in the results), washed, lysed in 1% CHAPSO/TBS; IP with anti-HA, blot for CLU.
Sequence of HA-tagged CD33^M (full-length major isoform) expressed in HEK293 / HEK293T cells (human) (P20138 18-364): as above
In assay [7] the target is CD33^M ectodomain (CD33 ECD), residues 21-232, glycosylated (human). The assay is described as follows: AUC; sedimentation velocity (0.4 mg/ml, 40,000 rpm) and sedimentation equilibrium (0.2, 0.1, 0.05 mg/ml, 16,000 or 20,000 rpm), 20 °C, 20 mM HEPES, 200 mM NaCl, pH 7.5; dimer to monomers.
In assay [8] the target is CD33^M ectodomain (CD33^M ECD), residues 21-232, Endo Hf-deglycosylated (human). The assay is described as follows: MST; Monolith NT.115, 23 °C, deglycosylated CD33 ECD labelled with Alexa Fluor 647; 20 mM HEPES pH 7.5, 150 mM NaCl, 0.05% Tween-20.
Assay [9] has the same target. Kind of assay: BLI; Octet RED384, 30 °C, 20 mM HEPES, 200 mM NaCl, 1 mg/mL casein, pH 7.5; Ni-NTA biosensors loaded with His6 deglycosylated CD33^M ECD WT or R119A; CLU 0.0025-5 µM; steady state (895-900 s), Hill equation; avidity. The source holds these as a separate data set.

Take “CD33^M ectodomain (CD33^M ECD), residues 21-232, Endo Hf-deglycosylated (domain or fragment)”: the Kd in [1] is 710 nM; in assay [2] it was 100 nM. In assay [2], this substance registered a stoichiometry N of 2.
For “CLU + Aβ1-42 oligomers (CLU/Aβ 1-42 mixture) (from UniProt P10909 23-227; P10909 228-449; P05067 672-713) (complex)”, in assay [3], the CD33 ITIM tyrosine phosphorylation (CD33^M-pTyr) in U937 cells, relative to no treatment (relative to no treatment (1.00)) stood at 11.9. In addition, the CD33-bound CLU in the co-IP (panel e) in [4] amounted to 1.06. Also, in assay [5], the Kd turned out to be 28.2 nM. Further, in [6], the CD33-bound CLU in the co-IP (panel d) was determined as 1.38.
Regarding “CD33^M ectodomain (CD33 ECD), residues 21-232, glycosylated (domain or fragment)”, the Kd in [7] turned out to be 300 nM.
Consider “native sialylated clusterin (CLU) purified from human plasma (from UniProt P10909 23-227; P10909 228-449) (ligand)”, for which the CD33 ITIM tyrosine phosphorylation (CD33^M-pTyr) in U937 cells, relative to no treatment (relative to no treatment (1.00)) in assay [3] was found to be 6.28. Moreover, in [8], the Kd is 55.1 nM. For the same substance, in assay [4], the CD33-bound CLU in the co-IP (panel e) worked out at 1.04 and the ratio of CLU to CD33 band intensities amounted to 1.23 arb. units. Also, the Kd in [5] is 27.9 nM. The Kd in assay [9] worked out at 28.9 nM. Also, in assay [6], the CD33-bound CLU in the co-IP (panel d) was found to be 1.15; the ratio of co-precipitated CLU to CD33 band intensities was determined as 0.85 arb. units; the ratio of co-precipitated CLU to CD33 band intensities (panel c) amounted to 0.425 arb. units; the ratio of co-precipitated CLU to CD33 band intensities, cells expressing CD33^M + CD33^m was found to be 0.45 arb. units.
